Assay results reported in publication PMC2568859, “Hybrids of the bHLH and bZIP Protein Motifs Display Different DNA-Binding Activities In Vivo vs. In Vitro”.

B1: E-box 24-mer duplex (dsDNA)
DNA 1: TGCAGGAATCACGTGATGAAGGTT
DNA 2: AACCTTCATCACGTGATTCCTGCA
B2: nonspecific 24-mer duplex (dsDNA)
DNA 1: TGCAGGAATTCCAAGGTGAAGGTT
DNA 2: AACCTTCACCTTGGAATTCCTGCA

What was measured:
[1] = biological target: T1, ArntbHLH-C/EBP (Homo sapiens (Arnt isoform variant 3) / …, UniProt P27540-2 65-130+=RIR+P05554:317-345, internal_change); experiment: fluorescence anisotropy; Buffer C (no additives, 1.0 ug/mL poly dI-dC); single isotherm, plateau not reached; Hill ~2; Buffer B: 100 mM Tris pH 7.4, 150 mM NaCl, 1 mM EDTA, 200 mM guanidine-HCl, 20% glycerol, 0.1 mg/mL acetylated BSA, 100 uM bp calf thymus DNA; 1 nM duplex; overnight 4 C then 22 C. Buffer C: 100 mM Tris pH 7.4, 150 mM NaCl, 1 mM EDTA, 1.0 ug/mL poly dI-dC. Buffer A: phosphate pH 7.4, 150 mM NaCl, …; settings: protein: recombinant; (pET-28A(+), TALON purified); chain copies: 2; label: 5' 6-FAM on one strand; 24-mer duplex
[2] = biological target: T2, ArntbHLH (Homo sapiens (isoform variant 3), UniProt P27540-2 65-130); experiment: as above; settings: protein: recombinant; chain copies: 2; label: 5' 6-FAM on one strand; 24-mer duplex
[3] = biological target: T1, ArntbHLH-C/EBP; experiment: fluorescence anisotropy; up to 1 uM monomeric protein; data not shown; Buffer B: 100 mM Tris pH 7.4, 150 mM NaCl, 1 mM EDTA, 200 mM guanidine-HCl, 20% glycerol, 0.1 mg/mL acetylated BSA, 100 uM bp calf thymus DNA; 1 nM duplex; overnight 4 C then 22 C. Buffer C: 100 mM Tris pH 7.4, 150 mM NaCl, 1 mM EDTA, 1.0 ug/mL poly dI-dC. Buffer A: phosphate pH 7.4, 150 mM NaCl, 2.7 mM KCl, 1 mM EDTA, 800 mM urea, 20% glycerol, …; settings: protein: recombinant; (pET-28A(+), TALON purified); chain copies: 2; label: 5' 6-FAM on one strand; 24-mer duplex
[4] = biological target: T2, ArntbHLH; experiment: as above; settings: protein: recombinant; chain copies: 2; label: 5' 6-FAM on one strand; 24-mer duplex

T1 sequence (P27540 other isoform, or with tags, fused parts or gaps): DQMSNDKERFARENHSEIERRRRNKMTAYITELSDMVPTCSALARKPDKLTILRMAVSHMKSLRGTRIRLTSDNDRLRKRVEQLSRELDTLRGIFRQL
T2 sequence (P27540 other isoform, or with tags, fused parts or gaps): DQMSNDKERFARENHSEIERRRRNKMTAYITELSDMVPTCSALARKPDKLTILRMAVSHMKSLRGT

Row | Binder | Kd [1] [nM] | Kd [2] [nM] | binding result [3] | binding result [4]
1 | B1 | ~350 | ~350 | – | –
2 | B2 | – | – | no binding | no binding
